Experimental findings from publication PMC12685124 (Proceedings of the National Academy of Sciences of the …, 2025) are described below.

Test [1] addresses T1, mesencephalic astrocyte-derived neurotrophic factor (Manf), recombinant (UniProt P55145 25-182). Put plainly: ELISA. Background: ELISA stands for enzyme-linked immunosorbent assay.
The target of test [2] is T1, mesencephalic astrocyte-derived …. Put plainly: MST.
The target in test [3] is T2, brain-derived neurotrophic factor (BDNF) (UniProt P23560 19-247).
T2 sequence (looked up): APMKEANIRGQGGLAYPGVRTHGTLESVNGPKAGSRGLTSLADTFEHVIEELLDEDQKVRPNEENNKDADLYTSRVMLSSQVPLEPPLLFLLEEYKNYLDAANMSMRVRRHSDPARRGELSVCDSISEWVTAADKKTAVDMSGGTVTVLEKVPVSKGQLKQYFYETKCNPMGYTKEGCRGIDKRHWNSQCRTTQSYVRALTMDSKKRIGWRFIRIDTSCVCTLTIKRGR
Nature of the test: MST.

B1: recombinant Np55 protein, extracellular domain (SinoBiological) (domain or fragment)
chain: QNEPRIVTSEEVIIRDSPVLPVTLQCNLTSSSHTLTYSYWTKNGVELSATRKNASNMEYRINKPRAEDSGEYHCVYHFVSAPKANATIEVKAAPDITGHKRSENKNEGQDATMYCKSVGYPHPDWIWRKKENGMPMDIVNTSGRFFIINKENYTELNIVNLQITEDPGEYECNATNAIGSASVVTVLRVRSHLAP
modifications: RED-NHS fluorescent label (in the MST assay only)
For orientation: Kd means the equilibrium constant for the complex coming apart. In the case of B1, the values for the Kd in test [1], in test [2] and in test [3] were 14.5 ± 1.17 nM, 34.6 ± 7.19 nM and 1740 ± 410 nM, respectively.
